Test results: publication PMC11243334, “Synthesis and Evaluation of the First ^68Ga-Labeled C-Terminal Hydroxamate-Derived Gastrin-Releasing Peptide Receptor-Targeted Tracers for Cancer Imaging with Positron Emission Tomography” (Molecules, 2024)
Like-named read-outs stand apart in the source and are kept apart here.

Columns and labels:
[1] = system: PC-3 tumor-bearing mice; assay: Ex vivo biodistribution in PC-3 tumor-bearing mice; settings: 1 h post injection, 100 μg nonradioactive standard co-injected
Procedure: (§1) Biodistribution studies were conducted for ^68Ga-labeled SB3, LW02075 and LW02050 in PC-3 tumor-bearing mice (n = 4).
(§2) Imaging and biodistribution studies were performed on male NOD.Cg-Rag1^tm1Mom Il2rg^tm1Wjl/SzJ (NRG) mice following previously published procedures. The experiments were conducted following the guidelines established by the Canadian Council on Animal Care and approved by Animal Ethics Committee of the University of British Columbia. The mice were sedated (2.5% isoflurane in oxygen) and injected with 5 × 10^6 PC-3 cells (100 µL; 1:1 PBS/Matrigel) subcutaneously behind the left shoulder. The tumor-bearing mice were used for PET/CT imaging and biodistribution studies when the tumor grew to 5–8 mm in diameter.
(§3) For biodistribution studies, the mice were injected with the radiotracer (~2–4 MBq), as described above. Blocking of [^68Ga]Ga-LW02075 and [^68Ga]Ga-LW02050 was conducted by co-injection with 100 μg nonradioactive Ga-LW02075 and Ga-LW02050, respectively, through a lateral caudal tail vein under anaesthesia. At 1 h post injection, the mice were sedated and euthanized by CO2 inhalation. Blood was collected via cardiac puncture, and organs/tissues of interest were collected, weighed, and counted on a Perkin Elmer (Waltham, MA, USA) Wizard2 2480 automatic gamma counter.

[2] = Ex vivo biodistribution in PC-3 tumor-bearing mice; settings: male, mouse, iv, total radioactivity, mean ± SD, n = 4; for tissue uptake at 1 h: NOD.Cg-Rag1^tm1Mom Il2rg^tm1Wjl/SzJ (NRG); for tissue to tissue ratio at 1 h: NOD.Cg-Rag1tm1Mom Il2rgtm1Wjl/SzJ (NRG)
Procedure: as §1, §2, §3

[3] = system: PC-3 tumor xenografts; assay: PET/CT imaging in mice bearing PC-3 tumor xenografts; type: in vivo; settings: 1 h post injection
Procedure: as §2
PET/CT imaging experiments were performed on a Siemens (Knoxville, TN, USA) Inveon micro PET/CT scanner. Each tumor-bearing mouse was injected with ~3–6 MBq of ^68Ga-labeled tracer through a lateral caudal tail vein under anaesthesia. At around 50 min post injection, a 10 min CT scan was obtained first for localization and attenuation correction after segmentation for reconstructing the PET image, followed by a 10 min static PET scan.

[4] = physchem; settings: n-octanol/DPBS, pH 7.4
Procedure: LogD7.4 values of [^68Ga]Ga-LW02075, [^68Ga]Ga-LW02050, and [^68Ga]Ga-SB3 were measured via the shake flask method. An aliquot of the ^68Ga-labeled tracer (~1.85 MBq) was added to a 15 mL falcon tube containing 3 mL of n-octanol and 3 mL of DPBS (pH 7.4) followed by 1 min of vortex (n = 3). After that, the mixture was centrifuged at 5000 rpm for 10 min, and samples of the n-octanol (1 mL) and buffer (1 mL) layers were collected and counted on a Perkin Elmer (Waltham, MA, USA) Wizard2 2480 automatic gamma counter. The LogD7.4 values of [^68Ga]Ga-LW02075, [^68Ga]Ga-LW02050, and [^68Ga]Ga-SB3 were calculated following the equation: LogD7.4 = log10[(counts in the n-octanol phase)/(counts in the buffer phase)].

CC(C)C[C@H](NC(=O)[C@H](Cc1c[nH]cn1)NC(=O)CNC(=O)[C@@H](NC(=O)[C@H](C)NC(=O)[C@H](Cc1c[nH]c2ccccc12)NC(=O)[C@H](CCC(N)=O)NC(=O)[C@@H](Cc1ccccc1)NC(=O)CN1CCC(NC(=O)CN2CCN(CC(=O)O)CCN(CC(=O)O)CCN(CC(=O)O)CC2)CC1)C(C)C)C(=O)NO [[^68Ga]Ga-LW02050, [^68Ga]Ga-DOTA-Pip-D-Phe-Gln-Trp-Ala-Val-Gly-His-Leu-NHOH, metal not drawn]
Reduction of average pancreas uptake by co-injection of nonradioactive standard [1]: 81%
Reduction of average uptake in PC-3 tumor xenografts by co-injection of nonradioactive standard [1]: 92%
tissue uptake at 1 h ([2]; PC-3 tumor, 1 h blocked: co-injected with 100 µg nonradioactive Ga-complexed standard, read-out: PC-3 tumor uptake, blocked): 0.42 ± 0.08 %ID/g
tissue uptake at 1 h ([2]; PC-3 tumor, 1 h post injection, read-out: PC-3 tumor uptake): 5.38 ± 1 %ID/g
tissue uptake at 1 h ([2]; adrenal glands, 1 h blocked: co-injected with 100 µg nonradioactive Ga-complexed standard, read-out: Adrenal glands uptake, blocked): 0.05 ± 0.05 %ID/g
tissue uptake at 1 h ([2]; adrenal glands, 1 h post injection, read-out: Adrenal glands uptake): 0.43 ± 0.15 %ID/g
tissue uptake at 1 h ([2]; blood, 1 h blocked: co-injected with 100 µg nonradioactive Ga-complexed standard, read-out: Blood uptake, blocked): 0.34 ± 0.06 %ID/g
tissue uptake at 1 h ([2]; blood, 1 h post injection, read-out: Blood uptake): 0.57 ± 0.11 %ID/g
tissue uptake at 1 h ([2]; bone, 1 h blocked: co-injected with 100 µg nonradioactive Ga-complexed standard, read-out: Bone uptake, blocked): 0.03 ± 0.03 %ID/g
tissue uptake at 1 h ([2]; bone, 1 h post injection, read-out: Bone uptake): 0.14 ± 0.06 %ID/g
tissue uptake at 1 h ([2]; brain, 1 h blocked: co-injected with 100 µg nonradioactive Ga-complexed standard, read-out: Brain uptake, blocked): 0.01 %ID/g
tissue uptake at 1 h ([2]; brain, 1 h post injection, read-out: Brain uptake): 0.03 ± 0.01 %ID/g
tissue uptake at 1 h ([2]; fat, 1 h blocked: co-injected with 100 µg nonradioactive Ga-complexed standard, read-out: Fat uptake, blocked): 0.04 ± 0.01 %ID/g
tissue uptake at 1 h ([2]; fat, 1 h post injection, read-out: Fat uptake): 0.05 ± 0.01 %ID/g
tissue uptake at 1 h ([2]; heart, 1 h blocked: co-injected with 100 µg nonradioactive Ga-complexed standard, read-out: Heart uptake, blocked): 0.1 ± 0.02 %ID/g
tissue uptake at 1 h ([2]; heart, 1 h post injection, read-out: Heart uptake): 0.19 ± 0.03 %ID/g
tissue uptake at 1 h ([2]; kidneys, 1 h blocked: co-injected with 100 µg nonradioactive Ga-complexed standard, read-out: Kidneys uptake, blocked): 1.95 ± 0.44 %ID/g
tissue uptake at 1 h ([2]; kidneys, 1 h post injection, read-out: Kidneys uptake): 2.88 ± 0.68 %ID/g
tissue uptake at 1 h ([2]; large intestine, 1 h blocked: co-injected with 100 µg nonradioactive Ga-complexed standard, read-out: Large intestine uptake, blocked): 0.19 ± 0.17 %ID/g
tissue uptake at 1 h ([2]; large intestine, 1 h post injection, read-out: Large intestine uptake): 0.34 ± 0.15 %ID/g
tissue uptake at 1 h ([2]; liver, 1 h blocked: co-injected with 100 µg nonradioactive Ga-complexed standard, read-out: Liver uptake, blocked): 0.29 ± 0.2 %ID/g
tissue uptake at 1 h ([2]; liver, 1 h post injection, read-out: Liver uptake): 0.44 ± 0.05 %ID/g
tissue uptake at 1 h ([2]; lungs, 1 h blocked: co-injected with 100 µg nonradioactive Ga-complexed standard, read-out: Lungs uptake, blocked): 0.33 ± 0.09 %ID/g
tissue uptake at 1 h ([2]; lungs, 1 h post injection, read-out: Lungs uptake): 0.55 ± 0.06 %ID/g
tissue uptake at 1 h ([2]; muscle, 1 h blocked: co-injected with 100 µg nonradioactive Ga-complexed standard, read-out: Muscle uptake, blocked): 0.06 ± 0.02 %ID/g
tissue uptake at 1 h ([2]; muscle, 1 h post injection, read-out: Muscle uptake): 0.13 ± 0.02 %ID/g
tissue uptake at 1 h ([2]; pancreas, 1 h blocked: co-injected with 100 µg nonradioactive Ga-complexed standard, read-out: Pancreas uptake, blocked): 0.1 ± 0.03 %ID/g
tissue uptake at 1 h ([2]; pancreas, 1 h post injection, read-out: Pancreas uptake): 0.53 ± 0.11 %ID/g
tissue uptake at 1 h ([2]; small intestine, 1 h blocked: co-injected with 100 µg nonradioactive Ga-complexed standard, read-out: Small intestine uptake, blocked): 0.26 ± 0.09 %ID/g
tissue uptake at 1 h ([2]; small intestine, 1 h post injection, read-out: Small intestine uptake): 0.43 ± 0.04 %ID/g
tissue uptake at 1 h ([2]; spleen, 1 h blocked: co-injected with 100 µg nonradioactive Ga-complexed standard, read-out: Spleen uptake, blocked): 0.12 ± 0.02 %ID/g
tissue uptake at 1 h ([2]; spleen, 1 h post injection, read-out: Spleen uptake): 0.25 ± 0.04 %ID/g
tissue uptake at 1 h ([2]; stomach, 1 h blocked: co-injected with 100 µg nonradioactive Ga-complexed standard, read-out: Stomach uptake, blocked): 0.04 ± 0.02 %ID/g
tissue uptake at 1 h ([2]; stomach, 1 h post injection, read-out: Stomach uptake): 0.34 ± 0.14 %ID/g
tissue uptake at 1 h ([2]; testes, 1 h blocked: co-injected with 100 µg nonradioactive Ga-complexed standard, read-out: Testes uptake, blocked): 0.13 ± 0.05 %ID/g
tissue uptake at 1 h ([2]; testes, 1 h post injection, read-out: Testes uptake): 0.17 ± 0.05 %ID/g
tissue to tissue ratio at 1 h ([2]; tumor and bone, 1 h blocked: co-injected with 100 µg nonradioactive Ga-complexed standard, read-out: Tumor/bone uptake ratio, blocked): 27.1 ± 18.1
tissue to tissue ratio at 1 h ([2]; tumor and bone, 1 h post injection, read-out: Tumor/bone uptake ratio): 43.6 ± 22.6
tissue to tissue ratio at 1 h ([2]; tumor and kidney, 1 h blocked: co-injected with 100 µg nonradioactive Ga-complexed standard, read-out: Tumor/kidney uptake ratio, blocked): 0.22 ± 0.05
tissue to tissue ratio at 1 h ([2]; tumor and kidney, 1 h post injection, read-out: Tumor/kidney uptake ratio): 1.92 ± 0.41
tissue to tissue ratio at 1 h ([2]; tumor and muscle, 1 h blocked: co-injected with 100 µg nonradioactive Ga-complexed standard, read-out: Tumor/muscle uptake ratio, blocked): 8.28 ± 2.7
tissue to tissue ratio at 1 h ([2]; tumor and muscle, 1 h post injection, read-out: Tumor/muscle uptake ratio): 44.4 ± 14.1
tissue to tissue ratio at 1 h ([2]; tumor and pancreas, 1 h blocked: co-injected with 100 µg nonradioactive Ga-complexed standard, read-out: Tumor/pancreas uptake ratio, blocked): 4.3 ± 0.83
tissue to tissue ratio at 1 h ([2]; tumor and pancreas, 1 h post injection, read-out: Tumor/pancreas uptake ratio): 10.7 ± 4.17
tissue to tissue ratio at 1 h ([2]; tumor and whole blood, 1 h blocked: co-injected with 100 µg nonradioactive Ga-complexed standard, read-out: Tumor/blood uptake ratio, blocked): 1.23 ± 0.14
tissue to tissue ratio at 1 h ([2]; tumor and whole blood, 1 h post injection, read-out: Tumor/blood uptake ratio): 9.68 ± 2.84
Uptake in PC-3 tumor xenograft in PET image with blocking ([3]; co-injection with 100 μg nonradioactive standard): close to the background level
Excretion pathway in PET images ([3]; mice): excreted primarily through the renal pathway
Pancreas in PET images ([3]; mice): nearly invisible
Visualization of PC-3 tumor xenografts in PET images ([3]; ~3–6 MBq i.v., mice): clearly visualized
logD [4]: -2.3 ± 0.14
